Like-named read-outs stand apart in the source and are kept apart here.
B1: recombinant SLURP-1 with one additional N-terminal Met residue (natural protein)
chain: MLKCYTCKEPMTSASCRTITRCKPEDTACMTTLVTVEAEYPFNQSPVVTRSCSSSCVATDPDSIGAAHLIFCCFRDLCNSEL
B2: synthetic SLURP-1 (natural protein)
chain: LKCYTCKEPMTSASCRTITRCKPEDTACMTTLVTVEAEYPFNQSPVVTRSCSSSCVATDPDSIGAAHLIFCCFRDLCNSEL

Assays:
[1] = target: muscle-type nicotinic acetylcholine receptor from the electric organ of Torpedo californica (Torpedo californica (endogenous in electric organ)) (UniProt P02710); assay: radioligand binding
Sequence of UniProt P02710 (P02710 25-461 limits assumed, chain 1 of 4): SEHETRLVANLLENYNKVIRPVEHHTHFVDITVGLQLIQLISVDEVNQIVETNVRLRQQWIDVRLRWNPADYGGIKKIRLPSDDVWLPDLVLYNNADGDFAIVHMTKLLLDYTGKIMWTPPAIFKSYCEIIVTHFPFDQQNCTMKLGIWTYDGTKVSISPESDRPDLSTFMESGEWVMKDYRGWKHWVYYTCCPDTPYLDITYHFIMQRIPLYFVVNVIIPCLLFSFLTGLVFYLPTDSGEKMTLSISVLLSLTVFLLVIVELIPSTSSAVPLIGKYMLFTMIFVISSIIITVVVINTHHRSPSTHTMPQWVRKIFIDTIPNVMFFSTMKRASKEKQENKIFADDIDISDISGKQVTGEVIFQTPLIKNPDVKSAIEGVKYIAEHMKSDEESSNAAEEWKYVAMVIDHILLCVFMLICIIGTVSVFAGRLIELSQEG
Sequence of UniProt P02710 (P02712 25-493 limits assumed, chain 2 of 4, further chain): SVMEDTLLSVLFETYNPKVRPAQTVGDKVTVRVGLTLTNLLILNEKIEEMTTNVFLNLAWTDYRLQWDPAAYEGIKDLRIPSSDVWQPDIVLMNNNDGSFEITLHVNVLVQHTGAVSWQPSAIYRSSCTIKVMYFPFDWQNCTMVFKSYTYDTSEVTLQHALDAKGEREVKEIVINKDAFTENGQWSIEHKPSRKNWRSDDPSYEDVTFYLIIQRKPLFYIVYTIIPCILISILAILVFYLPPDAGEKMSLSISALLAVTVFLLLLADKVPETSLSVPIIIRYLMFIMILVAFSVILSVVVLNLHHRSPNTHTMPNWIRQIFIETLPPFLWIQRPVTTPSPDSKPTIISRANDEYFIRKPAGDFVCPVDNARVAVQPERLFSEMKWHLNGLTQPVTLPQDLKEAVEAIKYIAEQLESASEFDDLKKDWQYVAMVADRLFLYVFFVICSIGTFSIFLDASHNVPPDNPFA
Sequence of UniProt P02710 (P02714 18-506 limits assumed, chain 3 of 4, further chain): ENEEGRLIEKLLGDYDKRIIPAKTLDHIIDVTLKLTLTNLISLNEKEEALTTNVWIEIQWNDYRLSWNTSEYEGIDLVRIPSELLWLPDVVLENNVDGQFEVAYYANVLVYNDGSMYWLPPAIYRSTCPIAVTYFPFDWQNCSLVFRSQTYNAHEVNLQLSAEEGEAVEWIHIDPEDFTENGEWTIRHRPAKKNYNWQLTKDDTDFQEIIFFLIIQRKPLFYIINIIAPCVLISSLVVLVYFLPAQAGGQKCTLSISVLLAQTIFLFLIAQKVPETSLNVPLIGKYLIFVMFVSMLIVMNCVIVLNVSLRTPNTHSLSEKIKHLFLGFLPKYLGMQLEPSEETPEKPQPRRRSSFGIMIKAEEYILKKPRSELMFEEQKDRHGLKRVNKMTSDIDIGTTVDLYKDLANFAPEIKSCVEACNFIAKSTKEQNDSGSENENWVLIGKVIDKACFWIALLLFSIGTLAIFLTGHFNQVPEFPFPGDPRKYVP
Sequence of UniProt P02710 (P02718 22-522 limits assumed, chain 4 of 4, further chain): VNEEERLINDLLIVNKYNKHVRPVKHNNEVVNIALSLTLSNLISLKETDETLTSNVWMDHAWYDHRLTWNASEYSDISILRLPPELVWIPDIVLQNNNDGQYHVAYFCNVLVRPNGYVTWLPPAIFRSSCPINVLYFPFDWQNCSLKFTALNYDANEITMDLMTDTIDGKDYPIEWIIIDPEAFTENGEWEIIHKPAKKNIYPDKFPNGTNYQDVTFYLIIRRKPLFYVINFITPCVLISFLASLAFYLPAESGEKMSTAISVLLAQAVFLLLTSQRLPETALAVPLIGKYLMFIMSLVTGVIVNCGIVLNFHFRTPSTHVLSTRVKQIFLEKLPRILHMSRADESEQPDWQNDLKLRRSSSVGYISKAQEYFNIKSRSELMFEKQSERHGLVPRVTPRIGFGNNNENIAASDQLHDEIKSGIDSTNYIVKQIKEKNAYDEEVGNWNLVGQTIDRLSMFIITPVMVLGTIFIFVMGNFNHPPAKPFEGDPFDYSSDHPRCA

[2] = target: muscle-type nicotinic acetylcholine receptor from the electric organ of Torpedo californica (Torpedo californica (endogenous in electric organ)) (UniProt P02710); assay: radioligand binding; remark: listed apart in the source

Row | Binder | IC50 [1] [µM] | IC50 [2] [µM]
1 | B1 | 10.7 | 9.55
2 | B2 | 4.05 | 3.92

Source: article PMC10707033
